Experimental data taken from patent publication US20200317807A1.

T1: CD70 (human) (UniProt P32970)
T1 sequence: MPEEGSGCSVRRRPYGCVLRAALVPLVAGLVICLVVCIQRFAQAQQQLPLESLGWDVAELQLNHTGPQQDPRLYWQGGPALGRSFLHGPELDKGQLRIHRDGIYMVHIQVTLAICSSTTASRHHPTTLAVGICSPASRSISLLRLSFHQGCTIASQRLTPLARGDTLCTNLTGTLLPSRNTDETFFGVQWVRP


Assays:
[1] = molecular target: T1, CD70 (human); assay: cell-based or functional assay
[2] = molecular target: mouse CD70 (mouse) (UniProt O55237); assay: cell-based or functional assay
Sequence of UniProt O55237 (O55237 whole entry): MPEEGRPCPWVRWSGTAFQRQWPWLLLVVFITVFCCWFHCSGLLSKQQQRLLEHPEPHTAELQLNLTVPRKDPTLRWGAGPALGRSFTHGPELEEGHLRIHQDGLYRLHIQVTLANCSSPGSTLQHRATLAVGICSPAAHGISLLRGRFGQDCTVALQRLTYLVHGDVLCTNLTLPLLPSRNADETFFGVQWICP

| Binder | IFN-γ (pg/ml), co-culture with 624/CD70 (CD70 Positive) [1] [pg/mL] | IFN-γ (pg/ml), co-culture with RCC 1581 (CD70 Pos) [1] [pg/mL] | IFN-γ (pg/ml), co-culture with RCC 2095R (CD70 Pos) [1] [pg/mL] | IFN-γ (pg/ml), co-culture with RCC 2219R (CD70 Pos) [1] [pg/mL] | IFN-γ (pg/ml), co-culture with RCC 2245R (CD70 Pos) [1] [pg/mL] | IFN-γ (pg/ml), co-culture with RCC 2246R (CD70 Pos) [1] [pg/mL] | IFN-γ (pg/ml), co-culture with RCC 2261R (CD70 Pos) [1] [pg/mL] | IFN-γ (pg/ml), co-culture with RCC 2361R (CD70 Pos) [1] [pg/mL] | IFN-γ (pg/ml), co-culture with RCC 2654R (CD70 Pos) [1] [pg/mL] | IFN-γ (pg/ml), co-culture with RCC 2657R (CD70 Pos) [1] [pg/mL] | IFN-γ (pg/ml), mouse T cells/mCD27-CD3ζ CAR co-cultured with B16/mCD70 [2] [pg/mL] |
| --- | --- | --- | --- | --- | --- | --- | --- | --- | --- | --- | --- |
| full length (f) CD27-CD3ζ CAR (full-length human CD27 and a human CD3ζ T cell intracellular signaling domain) (receptor) ATPAPKSCPERHYWAQGKLCCQMCEPGTFLVKDCDQHRKAAQCDPCIPGVSFSPDHHTRPHCESCRHCNSGLLVRNCTITANAECACRNGWQCRDKECTECDPLPNPSLTARSSQALSPHPQPTHLPYVSEMLEARTAGHMQTLADFRQLPARTLSTHWPPQRSLCSSDFIRILVIFSGMFLVFTLAGALFLHQRRKYRSNKGESPVEPAEPCRYSCPREEEGSTIPIQEDYRKPEPACSPRVKFSRSADAPAYQQGQNQLYNELNLGRREEYDVLDKRRGRDPEMGGKPRRKNPQEGLYNELQKDKMAEAYSEIGMKGERRRGKGHDGLYQGLSTATKDTYDALHMQALPPR | 6480 | 11800 | 5820 | 12100 | 9110 | 8220 | 7270 | 2260 | 7890 | 3510 |  |
| mCD27-CD3ζ CAR (full-length mouse CD27 and a mouse CD3ζ T cell intracellular signaling domain) (receptor) PNSCPDKHYWTGGGLCCRMCEPGTFFVKDCEQDRTAAQCDPCIPGTSFSPDYHTRPHCESCRHCNSGFLIRNCTVTANAECSCSKNWQCRDQECTECDPPLNPALTRQPSETPSPQPPPTHLPHGTEKPSWPLHRQLPNSTVYSQRSSHRPLCSSDCIRIFVTFSSMFLIFVLGAILFFHQRRNHGPNEDRQAVPEEPCPYSCPREEEGSAIPIQEDYRKPEPAFYPRAKFSRSAETAANLQDPNQLYNELNLGRREEYDVLEKKRARDPEMGGKQQRRRNPQEGVYNALQKDKMAEAYSEIGTKGERRRGKGHDGLYQGLSTATKDTYDALHMQTLAPR |  |  |  |  |  |  |  |  |  |  | 642000 |
